These results are taken from publication doi:10.1101/2022.09.09.507346 (bioRxiv, 2022).

Test [1] addresses T1, MBP-GLK2 fusion protein (Golden2-like transcription factor GLK2, full length) (Arabidopsis thaliana, UniProt Q9FFH0 1-386).
T1 sequence (looked up): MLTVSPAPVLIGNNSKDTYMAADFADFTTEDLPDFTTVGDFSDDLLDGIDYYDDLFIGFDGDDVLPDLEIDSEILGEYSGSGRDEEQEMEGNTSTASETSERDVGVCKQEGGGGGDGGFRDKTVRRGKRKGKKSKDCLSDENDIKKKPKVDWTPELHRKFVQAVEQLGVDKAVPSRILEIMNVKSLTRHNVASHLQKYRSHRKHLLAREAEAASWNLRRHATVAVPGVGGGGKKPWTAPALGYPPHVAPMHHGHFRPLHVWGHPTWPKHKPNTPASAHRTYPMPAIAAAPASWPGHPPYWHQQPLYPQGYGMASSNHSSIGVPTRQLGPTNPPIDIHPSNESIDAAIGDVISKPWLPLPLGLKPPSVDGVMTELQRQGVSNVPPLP
Kind of test: pull-down.

The target in test [2] is T2, MBP-GLK1 fusion protein (Golden2-like transcription factor GLK1, full length) (Arabidopsis thaliana, UniProt Q9SIV3 1-420).
T2 sequence (looked up): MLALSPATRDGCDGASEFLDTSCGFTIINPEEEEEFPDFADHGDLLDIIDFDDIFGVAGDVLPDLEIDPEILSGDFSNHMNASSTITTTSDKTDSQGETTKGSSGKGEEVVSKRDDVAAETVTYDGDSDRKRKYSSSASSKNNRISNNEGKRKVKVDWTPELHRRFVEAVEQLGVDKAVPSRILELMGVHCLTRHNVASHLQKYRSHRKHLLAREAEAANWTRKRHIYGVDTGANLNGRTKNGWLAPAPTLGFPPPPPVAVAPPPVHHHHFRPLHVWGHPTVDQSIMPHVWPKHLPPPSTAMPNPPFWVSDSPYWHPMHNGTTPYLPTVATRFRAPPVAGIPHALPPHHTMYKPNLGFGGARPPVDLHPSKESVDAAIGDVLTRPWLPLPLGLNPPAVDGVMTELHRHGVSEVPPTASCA
As to the kind of experiment: pull-down.

B1: GST-GBF3 fusion protein (G-box Binding Factor 3, full length) (natural protein, Arabidopsis thaliana, UniProt P42776 1-382, looked up)
chain: MGNSSEEPKPPTKSDKPSSPPVDQTNVHVYPDWAAMQAYYGPRVAMPPYYNSAMAASGHPPPPYMWNPQHMMSPYGAPYAAVYPHGGGVYAHPGIPMGSLPQGQKDPPLTTPGTLLSIDTPTKSTGNTDNGLMKKLKEFDGLAMSLGNGNPENGADEHKRSRNSSETDGSTDGSDGNTTGADEPKLKRSREGTPTKDGKQLVQASSFHSVSPSSGDTGVKLIQGSGAILSPGVSANSNPFMSQSLAMVPPETWLQNERELKRERRKQSNRESARRSRLRKQAETEELARKVEALTAENMALRSELNQLNEKSDKLRGANATLLDKLKCSEPEKRVPANMLSRVKNSGAGDKNKNQGDNDSNSTSKLHQLLDTKPRAKAVAAG
For the molecule B1, the binding result in test [1] and in test [2] was “binds” in each case.

B2: GST-GBF1 fusion protein (G-box Binding Factor 1, full length) (natural protein, Arabidopsis thaliana, UniProt P42774 1-315, looked up)
chain: MGTSEDKMPFKTTKPTSSAQEVPPTPYPDWQNSMQAYYGGGGTPNPFFPSPVGSPSPHPYMWGAQHHMMPPYGTPVPYPAMYPPGAVYAHPSMPMPPNSGPTNKEPAKDQASGKKSKGNSKKKAEGGDKALSGSGNDGASHSDESVTAGSSDENDENANQQEQGSIRKPSFGQMLADASSQSTTGEIQGSVPMKPVAPGTNLNIGMDLWSSQAGVPVKDERELKRQKRKQSNRESARRSRLRKQAECEQLQQRVESLSNENQSLRDELQRLSSECDKLKSENNSIQDELQRVLGAEAVANLEQNAAGSKDGEGTN
Consider B2, for which the binding result in test [1] and in test [2] was “binds” in each case.

B3: GST-GBF2 fusion protein (G-box Binding Factor 2, full length) (natural protein, Arabidopsis thaliana, UniProt P42775 1-360, looked up)
chain: MGSNEEGNPTNNSDKPSQAAAPEQSNVHVYHHDWAAMQAYYGPRVGIPQYYNSNLAPGHAPPPYMWASPSPMMAPYGAPYPPFCPPGGVYAHPGVQMGSQPQGPVSQSASGVTTPLTIDAPANSAGNSDHGFMKKLKEFDGLAMSISNNKVGSAEHSSSEHRSSQSSENDGSSNGSDGNTTGGEQSRRKRRQQRSPSTGERPSSQNSLPLRGENEKPDVTMGTPVMPTAMSFQNSAGMNGVPQPWNEKEVKREKRKQSNRESARRSRLRKQAETEQLSVKVDALVAENMSLRSKLGQLNNESEKLRLENEAILDQLKAQATGKTENLISRVDKNNSVSGSKTVQHQLLNASPITDPVAAS
For the molecule B3, the binding result in test [1] and in test [2] was “binds” in each case.
